Experiment in all cases: SPR
A general note: SPR reads the build-up and loss of mass on a sensor chip optically.

Test [1] has as its target cynomolgus monkey neonatal Fc receptor (cyno FcRn), soluble heterodimer (UniProt Q8SPV9+Q8SPW0). To be noted: pH 7.4; not stated (pH 7.4).
Test [2] concerns the target human neonatal Fc receptor (hFcRn), soluble heterodimer (UniProt P55899+P61769). To be noted: pH 7.4; not stated (pH 7.4).
In another test the target is FcγRIIIa (UniProt P08637).
Test [3] concerns the target biotinylated cynomolgus FcRn, p51 subunit with β2-m (cynomolgus monkey) (UniProt Q8SPV9).
The target in test [4] is biotinylated human neonatal Fc receptor (hFcRn), p51 subunit with β2-m (human) (UniProt P55899).

Chain of UniProt Q8SPV9 (Q8SPV9 24-297, chain 1 of 2): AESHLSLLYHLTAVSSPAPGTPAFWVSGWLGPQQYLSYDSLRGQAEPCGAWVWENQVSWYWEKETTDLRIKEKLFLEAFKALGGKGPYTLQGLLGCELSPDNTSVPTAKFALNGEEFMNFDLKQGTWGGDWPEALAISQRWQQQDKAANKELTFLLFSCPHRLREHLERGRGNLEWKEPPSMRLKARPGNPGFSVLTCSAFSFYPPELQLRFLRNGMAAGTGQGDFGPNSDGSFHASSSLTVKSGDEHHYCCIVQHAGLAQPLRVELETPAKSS
Chain of UniProt Q8SPV9 (Q8SPW0 21-119, chain 2 of 2, further chain): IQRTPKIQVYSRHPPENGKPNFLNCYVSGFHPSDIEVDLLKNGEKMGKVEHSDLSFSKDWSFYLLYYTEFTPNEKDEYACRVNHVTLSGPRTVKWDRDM
Chain of UniProt P08637 (P08637 17-208): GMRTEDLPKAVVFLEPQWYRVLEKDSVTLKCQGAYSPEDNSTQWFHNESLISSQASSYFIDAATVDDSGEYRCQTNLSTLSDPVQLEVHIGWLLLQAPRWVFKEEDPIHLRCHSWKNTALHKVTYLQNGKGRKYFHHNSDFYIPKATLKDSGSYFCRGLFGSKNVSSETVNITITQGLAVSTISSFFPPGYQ
Chain of UniProt P55899 (P55899 24-297, chain 1 of 2): as the sequence (Q8SPV9 24-297, chain 1 of 2) above, with D39N, Q44E, S99G, G189S, N190S, M217L, T269S counted along it
Chain of UniProt P55899 (P61769 21-119, chain 2 of 2, further chain): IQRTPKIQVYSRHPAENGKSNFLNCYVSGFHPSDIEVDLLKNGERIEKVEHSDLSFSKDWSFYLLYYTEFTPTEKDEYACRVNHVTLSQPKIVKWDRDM

On to adalimumab LS M428L;N434S, for which the Steady State RU was determined as 55.7 RU in test [1] and 68.4 RU in test [2].

As to “adalimumab WT Fc (labelled mAb2 in Table 2, mAb3 in Tables 1 and 3)”, the Steady State RU in test [1] is 2.5 RU; in test [2], 2.7 RU.

On to “adalimumab with the LS Fc-backbone mutation (M428L/N434S) (antibody)”, for which the values for the Kd (with FcγRIIIa; in test [3]; in test [4]) were 0.196 µM, 0.048 µM and 0.5 µM, respectively. In addition, the Steady State RU, at pH 7.4 in test [3] amounted to 55.7 RU; in test [4] it was 68.4 RU.

For adalimumab, wild-type Fc (antibody), the Kd with FcγRIIIa stood at 0.194 µM; in test [3], 1.1 µM; in test [4], 0.645 µM.

On to bevacizumab (mAb1) DQ T256D;T307Q, for which the figures for the Steady State RU in test [1] and in test [2] were 10.9 RU and 14 RU, respectively.

For the substance bevacizumab (mAb1) DW T256D;T307W, the results for the Steady State RU in test [1] and in test [2] were 14.8 RU and 18 RU, respectively.

For the substance bevacizumab (mAb1) LS M428L;N434S, the Steady State RU in test [1] is 38.3 RU; in test [2], 44 RU.

On to bevacizumab (mAb1) WT Fc, for which the Steady State RU in test [1] and in test [2] was 1.3 RU in each case.

As to bevacizumab (mAb1) YD M252Y;T256D, the Steady State RU worked out at 22.2 RU in test [1] and 27 RU in test [2].

Consider “mAb1 (bevacizumab) with the DQ Fc-backbone mutation (T256D/T307Q) (antibody)”, for which the figures for the Kd (with FcγRIIIa; in test [3]; in test [4]) were 0.361 µM, 0.11 µM and 0.089 µM, respectively. The figures for the Steady State RU, at pH 7.4 in test [3] and in test [4] were 10.9 RU and 14 RU, respectively.

Take “mAb1 (bevacizumab) with the DW Fc-backbone mutation (T256D/T307W) (antibody)”: the Kd was 0.329 µM in the test with FcγRIIIa, 0.099 µM in test [3] and 0.126 µM in test [4]. The Steady State RU, at pH 7.4 in test [3] was found to be 14.8 RU; in test [4] it was 18 RU.

As for “mAb1 (bevacizumab) with the LS Fc-backbone mutation (M428L/N434S) (antibody)”, the Kd with FcγRIIIa was determined as 0.307 µM; in test [3] it was 0.21 µM. For the same substance, the Steady State RU, at pH 7.4 in test [3] amounted to 38.3 RU; in test [4], 44 RU.

For “mAb1 (bevacizumab) with the YD Fc-backbone mutation (M252Y/T256D) (antibody)”, the Kd with FcγRIIIa is 0.645 µM; in test [3], 0.12 µM; in test [4], 0.086 µM. Moreover, the Steady State RU, at pH 7.4 in test [3] stood at 22.2 RU; in test [4], 27 RU.

As for “mAb1 (bevacizumab), wild-type Fc (antibody)”, the figures for the Kd (in the test with FcγRIIIa; in test [3]; in test [4]) were 0.377 µM, 1.44 µM and 0.5 µM, respectively.

For orientation: Kd means the constant that tells how readily two partners part at equilibrium.

The values above are taken from paper PMC7587234.
